The source of these data is article PMC11417369, “DNA sequence and chromatin differentiate sequence-specific transcription factor binding in the human malaria parasite Plasmodium falciparum”.

Where a chain is given by its changes, count along the chain named.

Sequences and labels used below:
B1: GTGCAC_site10268 (dsDNA)
DNA 1: TTTTTTGTTATTGGCGTGCACATATCCATTTATAGT
DNA 2: ACTATAAATGGATATGTGCACGCCAATAACAAAAAA
B2: GTGCAC_site10324 (dsDNA)
DNA 1: TTGTTTTATTATTCGATGCACTACAGAAATATATTC
DNA 2: GAATATATTTCTGTAGTGCATCGAATAATAAAACAA
B3: GTGCAC_site9626 (dsDNA)
DNA 1: TTTATTAATAAAAAGGTGCAATCAGGAAAAATTATC
DNA 2: GATAATTTTTCCTGATTGCACCTTTTTATTAATAAA
B4: GTGCAC_site10565 (dsDNA)
DNA 1: AAAAAAGAACGCATAGTGCATATCTAAAAGATTTTT
DNA 2: AAAAATCTTTTAGATATGCACTATGCGTTCTTTTTT
B5: GTGCAC_site10494 (dsDNA)
DNA 1: AATATATAGGAAAAAGTGCAATAAATGAACAAAATA
DNA 2: TATTTTGTTCATTTATTGCACTTTTTCCTATATATT
B6: GTGCAC_site9514 (dsDNA)
DNA 1: GTAGGATTTTCTTTTGTGCGCAATATAAAAAGAAAA
DNA 2: TTTTCTTTTTATATTGCGCACAAAAGAAAATCCTAC
B7: GTGCAC_site10115 (dsDNA)
DNA 1: TTTGTTTGTAAAATGTTGCACTTTCTTTTGCTGATA
DNA 2: TATCAGCAAAAGAAAGTGCAACATTTTACAAACAAA
B8: GTGCAC_site10474 (dsDNA)
DNA 1: TTTTTTGTTACAACAGTGCAAAAAAACCTTAATGTT
DNA 2: AACATTAAGGTTTTTTTGCACTGTTGTAACAAAAAA
B9: GTGCAC_site9741 (dsDNA)
DNA 1: ATTCATATTTTTCAAGTGCGCATTAAAATATTAACC
DNA 2: GGTTAATATTTTAATGCGCACTTGAAAAATATGAAT
B10: GTGCAC_site10026 (dsDNA)
DNA 1: ATATAAGTATTTTGAATGCACTTTCTTTTTTTTTTT
DNA 2: AAAAAAAAAAAGAAAGTGCATTCAAAATACTTATAT
B11: GTGCAC_site9605 (dsDNA)
DNA 1: AAGGGAAAAATATGGTTGCACTAAAAATATGTAATT
DNA 2: AATTACATATTTTTAGTGCAACCATATTTTTCCCTT
B12: GTGCAC_site10309 (dsDNA)
DNA 1: GTTAATTTTTGTATAGTGCAAAAATATAATAGTATG
DNA 2: CATACTATTATATTTTTGCACTATACAAAAATTAAC
B13: GTGCAC_site9462 (dsDNA)
DNA 1: AACTGTACAATTTTTGTGCACAATAATTATTAATAT
DNA 2: ATATTAATAATTATTGTGCACAAAAATTGTACAGTT
B14: GTGCAC_site9804 (dsDNA)
DNA 1: TCAAAAGAATAATTGGTGCAAATTATATAATATAAT
DNA 2: ATTATATTATATAATTTGCACCAATTATTCTTTTGA
B15: GTGCAC_site10469 (dsDNA)
DNA 1: ATTTTCACCTGAACGGTGCATATTTAATTTTAGGTT
DNA 2: AACCTAAAATTAAATATGCACCGTTCAGGTGAAAAT
B16: GTGCAC_site10062 (dsDNA)
DNA 1: TCTATTTTCTTATGAATGCACTAATTTATAAAACGT
DNA 2: ACGTTTTATAAATTAGTGCATTCATAAGAAAATAGA
B17: GTGCAC_site9508 (dsDNA)
DNA 1: TAATAAAAAGTTGAGGTGCATATAGAGTTCTTCTTT
DNA 2: AAAGAAGAACTCTATATGCACCTCAACTTTTTATTA
B18: GTGCAC_site9782 (dsDNA)
DNA 1: AAAATATAAATTCATGTGCACATATATATTTTGTTA
DNA 2: TAACAAAATATATATGTGCACATGAATTTATATTTT
B19: GTGCAC_site10317 (dsDNA)
DNA 1: TTATATTTTCTCCGCGTGCACATATGTATACTATAC
DNA 2: GTATAGTATACATATGTGCACGCGGAGAAAATATAA
B20: GTGCAC_site9494 (dsDNA)
DNA 1: TTGTTTTTAATATCGGTGCAATGGAAAGAAAAGAAG
DNA 2: CTTCTTTTCTTTCCATTGCACCGATATTAAAAACAA
B21: GTGCAC_site10615 (dsDNA)
DNA 1: ATTTTTTTTGTAAAAGTGCATATATATATATATATA
DNA 2: TATATATATATATATATGCACTTTTACAAAAAAAAT
B22: GTGCAC_site9467 (dsDNA)
DNA 1: AAATAATGAAACAAAGTGCATAAAAATATACATATA
DNA 2: TATATGTATATTTTTATGCACTTTGTTTCATTATTT
B23: GTGCAC_site10675 (dsDNA)
DNA 1: GTAGTTATATTAAGGGTGCTTAATTAGATTAAACAA
DNA 2: TTGTTTAATCTAATTAAGCACCCTTAATATAACTAC
B24: GTGCAC_site9873 (dsDNA)
DNA 1: CCCTCCCCATGTTTAGTGCAAAAATATTTGAAATTG
DNA 2: CAATTTCAAATATTTTTGCACTAAACATGGGGAGGG
B25: GTGCAC_site10322 (dsDNA)
DNA 1: TTTTTTTTTTTGTGAGTGCACGTATGAAGAGAAAAA
DNA 2: TTTTTCTCTTCATACGTGCACTCACAAAAAAAAAAA
B26: GTGCAC_site10220 (dsDNA)
DNA 1: CATATAAAAAATATGGTGCAGTTTTTTTTTTTTTTT
DNA 2: AAAAAAAAAAAAAAACTGCACCATATTTTTTATATG
B27: GTGCAC_site9681 (dsDNA)
DNA 1: ACTACGAATGGTAGAGTGCAGTCTGGAGAAAAGTAC
DNA 2: GTACTTTTCTCCAGACTGCACTCTACCATTCGTAGT
B28: GTGCAC_site9779 (dsDNA)
DNA 1: TTTTGTTATAATAAAGTGCATTTAGTCGGGTTACAA
DNA 2: TTGTAACCCGACTAAATGCACTTTATTATAACAAAA
B29: GTGCAC_site9648 (dsDNA)
DNA 1: ATAATTTCACAAATAGTGCAAAAATTAGTAAGAATA
DNA 2: TATTCTTACTAATTTTTGCACTATTTGTGAAATTAT
B30: GTGCAC_site9423 (dsDNA)
DNA 1: ACACATACACATTAGGTGCATATATTTCAATATTAC
DNA 2: GTAATATTGAAATATATGCACCTAATGTGTATGTGT
B31: GTGCAC_site9414 (dsDNA)
DNA 1: TTAAATATTTTTAGAGTGCATGTAATAAAAATATAA
DNA 2: TTATATTTTTATTACATGCACTCTAAAAATATTTAA
B32: GTGCAC_site10398 (dsDNA)
DNA 1: AAATACTTATTCGTGGTGCAACAATTTTAAAAATTA
DNA 2: TAATTTTTAAAATTGTTGCACCACGAATAAGTATTT
B33: GTGCAC_site9543 (dsDNA)
DNA 1: CAATATTTGTTATGGGTGCAAACCGCATATATATAA
DNA 2: TTATATATATGCGGTTTGCACCCATAACAAATATTG
B34: GTGCAC_site9428 (dsDNA)
DNA 1: B33 DNA 1 with C1A, T6G, G25A
DNA 2: B33 DNA 2 with C12T, A31C, G36T
B35: GTGCAC_site10697 (dsDNA)
DNA 1: AATATTTCTCATTTTGTGCACTGAAAAATGTAATAT
DNA 2: ATATTACATTTTTCAGTGCACAAAATGAGAAATATT
B36: GTGCAC_site10687 (dsDNA)
DNA 1: TATATATATTATATAGTGCATTGAAGAAGGGGATTT
DNA 2: AAATCCCCTTCTTCAATGCACTATATAATATATATA
B37: GTGCAC_site10266 (dsDNA)
DNA 1: TCTTAAAATATATAGGTGCAAAAAAAAAAAAAAAAA
DNA 2: TTTTTTTTTTTTTTTTTGCACCTATATATTTTAAGA
B38: GTGCAC_site10638 (dsDNA)
DNA 1: TAATATAATGATGCAGTGCATATGTTAAAATGAAAA
DNA 2: TTTTCATTTTAACATATGCACTGCATCATTATATTA
B39: GTGCAC_site10217 (dsDNA)
DNA 1: ATATATTTTTGTAGTGTGCACGTTTATATGGTGAAA
DNA 2: TTTCACCATATAAACGTGCACACTACAAAAATATAT
B40: GTGCAC_site10781 (dsDNA)
DNA 1: ACATTTTTGGTTTTAGTGCAATATGAATTATTTTAT
DNA 2: ATAAAATAATTCATATTGCACTAAAACCAAAAATGT
B41: GTGCAC_site10240 (dsDNA)
DNA 1: CTTTTAGAATAATCAGTGCAAAAAAAAAAAAAAAAA
DNA 2: TTTTTTTTTTTTTTTTTGCACTGATTATTCTAAAAG
B42: GTGCAC_site9938 (dsDNA)
DNA 1: GAATTATAAATTATAGTGCATAAAATTATGGCATAA
DNA 2: TTATGCCATAATTTTATGCACTATAATTTATAATTC

The target of the data set is AP2-I D3 (Plasmodium falciparum, UniProt Q8IJW6 910-1027). Kind of data set: gcPBM; about 25 ug protein; PBS, 1% milk, 0.2 mg/ml BSA, salmon testes DNA, 0.03% Triton X-100. The settings on record: tags: N-terminal GST (pGEX-4T-1), kept; label: surface-attached array probe.
Turning to B1, the binding signal was 10.4 ln median PBM intensity, better of two orientations.
Take B2: the binding signal is 9.21 ln median PBM intensity, better of two orientations.
The figure for B3 is 10.7 ln median PBM intensity, better of two orientations.
With B4, the binding signal is 9.16 ln median PBM intensity, better of two orientations.
On to B5, for which the binding signal was 11.3 ln median PBM intensity, better of two orientations.
B6: the binding signal is 9.23 ln median PBM intensity, better of two orientations.
Take B7: the binding signal was 9.33 ln median PBM intensity, better of two orientations.
For B8 the value was 10.2 ln median PBM intensity, better of two orientations; for B9, 9.34 ln median PBM intensity, better of two orientations; for B10, 10.5 ln median PBM intensity, better of two orientations.
As for B11, the binding signal was 9.25 ln median PBM intensity, better of two orientations.
As to B12, the binding signal is 10.6 ln median PBM intensity, better of two orientations.
The figure for B13 is 11.3 ln median PBM intensity, better of two orientations; for B14 it is 10.8 ln median PBM intensity, better of two orientations.
As to B15, the binding signal is 10 ln median PBM intensity, better of two orientations.
For B16 the value was 10.8 ln median PBM intensity, better of two orientations.
For B17 the value was 10.5 ln median PBM intensity, better of two orientations; for B18, 9.03 ln median PBM intensity, better of two orientations; for B19, 10.2 ln median PBM intensity, better of two orientations.
As for B20, the binding signal was 10.2 ln median PBM intensity, better of two orientations.
Regarding B21, the binding signal was 10.5 ln median PBM intensity, better of two orientations.
Turning to B22, the binding signal is 10.6 ln median PBM intensity, better of two orientations.
The figure for B23 is 10.8 ln median PBM intensity, better of two orientations.
For B24 the value was 10.9 ln median PBM intensity, better of two orientations.
For B25 the value was 11.2 ln median PBM intensity, better of two orientations.
Regarding B26, the binding signal is 10.3 ln median PBM intensity, better of two orientations.
With B27, the binding signal was 9.19 ln median PBM intensity, better of two orientations.
For B28 the value was 10.4 ln median PBM intensity, better of two orientations; for B29, 10.3 ln median PBM intensity, better of two orientations.
For B30 the value was 10.6 ln median PBM intensity, better of two orientations.
For B31 the value was 9.27 ln median PBM intensity, better of two orientations; for B32, 10.4 ln median PBM intensity, better of two orientations.
B33: the binding signal is 10.3 ln median PBM intensity, better of two orientations.
For B34 the value was 10.2 ln median PBM intensity, better of two orientations; for B35, 11 ln median PBM intensity, better of two orientations.
Take B36: the binding signal is 11.1 ln median PBM intensity, better of two orientations.
For B37 the value was 10.9 ln median PBM intensity, better of two orientations; for B38, 9.15 ln median PBM intensity, better of two orientations.
For the molecule B39, the binding signal is 10.5 ln median PBM intensity, better of two orientations.
The figure for B40 is 11 ln median PBM intensity, better of two orientations; for B41 it is 10.1 ln median PBM intensity, better of two orientations; for B42 it is 10.8 ln median PBM intensity, better of two orientations.
